Target: huIgG1 Fc (dummy) K409D&K392D (human) [IgG part: P0DOX5]
Assay: co-expression in 293-6E with M315 scFv-Fc D399′K; E357′K, non-reduced SDS-PAGE (FIG. 10), band density

percentage of Dummy Fc Homodimer yield: 20.9%
Substance: huIgG1 Fc (dummy) K409D&K392D (from UniProt P0DOX5 218-449)

From patent publication US20100286374A1
